In test [1] the test system is human FAM19A5 protein epitope fragments F1-F6. Kind of test: Epitope mapping: binding to BSA-conjugated FAM19A5 epitope fragments F1-F6 (Western blot / ELISA). Particulars: ELISA. Here is the method: Overlapping peptide fragments (F1-F6 epitope fragments; SEQ ID NOs: 178-183) of the human FAM19A5 protein were synthesized and conjugated to BSA (SEQ ID NOs: 322-327). Binding of the different anti-FAM19A5 antibodies to the BSA-conjugated peptide fragments F1-F6 was determined by Western blot analysis or ELISA assay. For the Western blot analysis, BSA-conjugated FAM19A5 fragments F1-F6 were separated by SDS polyacrylamide gel electrophoresis and transferred to a nitrocellulose membrane by the standard procedure. The membrane was incubated with the anti-FAM19A5 antibody (e.g., 1-65, […], 1-65-scFv-rabbit Fc-SSS), and the antigen-antibody complexes were detected with the appropriate secondary antibody conjugated with horse-radish peroxidase (anti-rabbit IgG (Fc specific)-HRP, 1:4000 dilution). For the ELISA assay, the following protocol was used. FAM19A5 fragment F1-F6 (diluted to 1 μg/mL in 50 mM carbonate buffer (Biosesang) or to 20 μg/mL for high concentration analysis) were used to coat the wells of 96-well immuno plates (Thermo Scientific) (100 μL/well) overnight at 4° C. and then subsequently washed twice in 1×PBS. The plates were then blocked with the blocking buffer (100 μL/well) for 1 hour at room temperature. During the 1-hour incubation, the relavant anti-FAM19A5 antibodies were diluted to 1 μg/mL (or 20 μg/mL for high concentration analysis) in the diluent buffer. Once the plates were washed (2× using 1×PBS), the diluted anti-FAM19A5 antibodies were added to the appropriate wells, and the plates were incubated at room temperature for 1 hour. The plates were subsequently washed for a total of five times using the washing buffer. Next, the ODP substrate (prepared by dissolving one ODP tablet (O-phenylenediamine Dihydrochloride, Thermo) into 9 mL of sterilized deionized water and 1 mL of 10× stable Peroxide Stable buffer (Theromo)) was added to each of the wells, and the color change reaction was allowed to occur for 10 minutes. This reaction was stopped by adding 100 μL of 2N H2SO4 (Daejung) to the wells. The absorption value of each of the wells was detected at 492 nm using a 96-well microplate reader (Molecular Device).
(In general: In western blotting, separated proteins are transferred to a membrane and probed.)

The next test deals with human FAM19A5 (Homo sapiens, UniProt Q7Z5A7). Kind of test: HDX-MS epitope mapping. It is filed as binding. Conditions: HDX-MS deuterium uptake heat map; residues of SEQ ID NO: 304. The method, then: Hydrogen/deuterium exchange mass spectrometry (HDX-MS) was utilized as described below to probe the binding epitope of human FAM19A5 for the clone 2-13 anti-FAM19A5 antibody.
Prior to epitope mapping experiments, non-deuteriated experiments were carried out to generate a list of common peptides for FAM19A5 protein. Off-line and on-line pepsin digestion were used to digest the FAM19A5 protein. Houde, D., et al., Methods Mol Biol 988:269-89 (2013). With on-line digestion, pepsin immobilized column was used (~20° C.) and the efficiency of the reaction was regulated by adjusting the flow rate. With the off-line method, FAM19A5 protein was digested manually with pepsin at 4° C. for 5 minutes, and then, the mixture was loaded to liquid chromatography column for analysis. To identify the condition for maximal protein coverage, one or more of the following parameters were adjusted: potassium phosphate, sodium phosphate, quench holding time, reducing reagent (TCEP), urea concentration, and pepsin concentration. The Waters PLGS software was used to analyze the raw mass spectrometry (MS) data generated to determine whether maximal protein coverage was obtained. To confirm the reproducibility of the experiments, each of the experimental conditions were repeated at least twice, and peptides that were generated were confirmed. […]

human FAM19A5, sequence (Q7Z5A7 26-125 isoform Q7Z5A7-2 limits assumed): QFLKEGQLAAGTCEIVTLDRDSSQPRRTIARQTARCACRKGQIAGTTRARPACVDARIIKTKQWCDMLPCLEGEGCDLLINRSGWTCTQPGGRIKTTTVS

B1: 2-13: anti-FAM19A5 antibody; VH SEQ ID NO: 35, VL SEQ ID NO: 39 (antibody, V domains shown)
VH: AVTLDESGGGLQTPGGALSLVCKASGFTFSSHGMFWVRQTPGKGLEYVAEITNDGSGTNYGSAVKGRATISRDNGQSTVRLQLNNLRAEDTGTYFCARSTYECPGGFSCWGDTGQIDAWGHGTEVIVSS
VL: ALTQPSSVSANPGETVKITCSGGSYSYGWFQQKSPGSALVTVIYWDDERPSDIPSRFSGALSGSTNTLTITGVQADDEAVYFCGTEDISGTAGVFGAGTTLTVL
modifications: 2-13 VH; 2-13 VL
As to B1, in test [1], the “binding to any of the epitope fragments F1-F6” value was “did not appear to bind”. Besides, the “amino acid residues identified as important binding residues” value in the test with human FAM19A5 is 38-50 ([…]; i.e., SEQ ID NO: 199) and 51-64 ([…]; i.e., SEQ ID NO: 200).

The values are drawn from patent US20260265360A1, “USE OF ANTI-FAM19A5 ANTAGONISTS FOR TREATING HEARING DISORDERS” (NEURACLE SCIENCE CO., LTD., priority 2023, published 2026).
